Measured values reported in patent US12545899B2, “Luciferase enzymes for use with thermostable luciferins in bioluminescent assays” (Promega Corporation, priority 2018, dated 2026).

B1: C2158H1: SEQ ID NO: 44; H244W+T344A+I396K+S193A+N228D+L305F+S306P+I109V+I230F (protein)
chain: MADKNILYGPEPFYPLEDGTAGEQMFDALSRYAAIPGCIALTNAHTKENVLYEEFLKLSCRLAESFKKYGLKQNDTIAVCSENSLQFFLPVIASLYLGIIVAPVNDKYVERELIHSLGIVKPRIVFCSKNTFQKVLNVKSKLKSIETIIILDLNEDLGGYQCLNNFISQNSDSNLDVKKFKPYSFNRDDQVAAIMFSSGTTGLPKGVMLTHKNIVARFSIAKDPTFGDAFNPTSAILTVIPFHWGFGMMTTLGYFTCGFRVVLMHTFEEKLFLQSLQDYKVESTLLVPTLMAFLAKSALVEKYDFPHLKEIASGGAPLSKEIGEMVKKRFKLNFVRQGYGLTEATSAVLITPKGDAKPGSTGKIVPLHAVKVVDPTTGKILGPNEPGELYFKGPMKMKGYYNNEEATKAIIDNDGWLRSGDIAYYDNDGHFYIVDRLKSLIKYKGYQVAPAEIEGILLQHPYIVDAGVTGIPDEAAGELPAAGVVVQTGKYLNEQIVQDYVASQVSTAKWLRGGVKFLDEIPKGSTGKIDRKVLRQMLEKHTNGHHHHHHHH
B2: C2261E4: SEQ ID NO: 50; H244W+T344A+I396K+S193A+N228D+L305F+S306P+I109V+I230F (protein)
chain: MADKNILYGPEPFYPLEDGTAGEQMFDALSRYAAIPGCIALTNAHTKENVLYEEFLKLSCRLAESFKKYGLKQNDTIAVCSENSLQFFLPVIASLYLGIIVAPVNDKYVERELIHSLGIVKPRIVFCSKNTFQKVLNVKSKLKSIETIIILDLNEDLGGYQCLNNFISQNSDSNLDVKKFKPYSFNRDDQVAAIMFSSGTTGLPKGVMLTHKNIVARFSIAKDPTFGDAFNPTSAILTVIPFHWGFGMMTTLGYFTCGFRVVLMHTFEEKLFLQSLQDYKVESTLLVPTLMAFLAKSALVEKYDFPHLKEIASGGAPLSKEIGEMVKKRFKLNFVRQGYGLTEATSAVLITPKGDAKPGSTGKIVPLHAVKVVDPTTGKILGPNEPGELYFKGPMKMKGYYNNEEATKAIIDNDGWLRSGDIAYYDNDGHFYIVDRLKSLIKYKGYQVAPAEIEGILLQHPYIVDAGVTGIPDEAAGELPAAGVVVQTGKYLNEQIVQDYVASQVSTAKWLRGGVKFLDEIPKGSTGKIDRKVLRQMLEKHTNGHHHHHHHH
B3: C2149A12: SEQ ID NO: 49; H244W+T344A+I396K+S193A+N228D+L305F+S306P+I109V+F246Y+V261A (protein)
chain: MADKNILYGPEPFYPLEDGTAGEQMFDALSRYAAIPGCIALTNAHTKENVLYEEFLKLSCRLAESFKKYGLKQNDTIAVCSENSLQFFLPVIASLYLGIIVAPVNDKYVERELIHSLGIVKPRIVFCSKNTFQKVLNVKSKLKSIETIIILDLNEDLGGYQCLNNFISQNSDSNLDVKKFKPYSFNRDDQVAAIMFSSGTTGLPKGVMLTHKNIVARFSIAKDPTFGDAINPTSAILTVIPFHWGYGMMTTLGYFTCGFRAVLMHTFEEKLFLQSLQDYKVESTLLVPTLMAFLAKSALVEKYDFPHLKEIASGGAPLSKEIGEMVKKRFKLNFVRQGYGLTEATSAVLITPKGDAKPGSTGKIVPLHAVKVVDPTTGKILGPNEPGELYFKGPMKMKGYYNNEEATKAIIDNDGWLRSGDIAYYDNDGHFYIVDRLKSLIKYKGYQVAPAEIEGILLQHPYIVDAGVTGIPDEAAGELPAAGVVVQTGKYLNEQIVQDYVASQVSTAKWLRGGVKFLDEIPKGSTGKIDRKVLRQMLEKHTNGHHHHHHHH
B4: C2262C2: SEQ ID NO: 47; H244W+T344A+I396K+S193A+N228D+L305F+S306P+I109V+Y183C+V261A+T289S (protein)
chain: MADKNILYGPEPFYPLEDGTAGEQMFDALSRYAAIPGCIALTNAHTKENVLYEEFLKLSCRLAESFKKYGLKQNDTIAVCSENSLQFFLPVIASLYLGIIVAPVNDKYVERELIHSLGIVKPRIVFCSKNTFQKVLNVKSKLKSIETIIILDLNEDLGGYQCLNNFISQNSDSNLDVKKFKPCSFNRDDQVAAIMFSSGTTGLPKGVMLTHKNIVARFSIAKDPTFGDAINPTSAILTVIPFHWGFGMMTTLGYFTCGFRAVLMHTFEEKLFLQSLQDYKVESTLLVPSLMAFLAKSALVEKYDFPHLKEIASGGAPLSKEIGEMVKKRFKLNFVRQGYGLTEATSAVLITPKGDAKPGSTGKIVPLHAVKVVDPTTGKILGPNEPGELYFKGPMKMKGYYNNEEATKAIIDNDGWLRSGDIAYYDNDGHFYIVDRLKSLIKYKGYQVAPAEIEGILLQHPYIVDAGVTGIPDEAAGELPAAGVVVQTGKYLNEQIVQDYVASQVSTAKWLRGGVKFLDEIPKGSTGKIDRKVLRQMLEKHTNGHHHHHHHH
B5: C2159F8: SEQ ID NO: 48; H244W+T344A+I396K+S193A+N228D+L305F+S306P+I109V+Y32C (protein)
chain: MADKNILYGPEPFYPLEDGTAGEQMFDALSRCAAIPGCIALTNAHTKENVLYEEFLKLSCRLAESFKKYGLKQNDTIAVCSENSLQFFLPVIASLYLGIIVAPVNDKYVERELIHSLGIVKPRIVFCSKNTFQKVLNVKSKLKSIETIIILDLNEDLGGYQCLNNFISQNSDSNLDVKKFKPYSFNRDDQVAAIMFSSGTTGLPKGVMLTHKNIVARFSIAKDPTFGDAINPTSAILTVIPFHWGFGMMTTLGYFTCGFRVVLMHTFEEKLFLQSLQDYKVESTLLVPTLMAFLAKSALVEKYDFPHLKEIASGGAPLSKEIGEMVKKRFKLNFVRQGYGLTEATSAVLITPKGDAKPGSTGKIVPLHAVKVVDPTTGKILGPNEPGELYFKGPMKMKGYYNNEEATKAIIDNDGWLRSGDIAYYDNDGHFYIVDRLKSLIKYKGYQVAPAEIEGILLQHPYIVDAGVTGIPDEAAGELPAAGVVVQTGKYLNEQIVQDYVASQVSTAKWLRGGVKFLDEIPKGSTGKIDRKVLRQMLEKHTNGHHHHHHHH
B6: C2160C1: SEQ ID NO: 51; H244W+T344A+I396K+S193A+N228D+L305F+S306P+I109V+K121Q+F246Y+V261A (protein)
chain: MADKNILYGPEPFYPLEDGTAGEQMFDALSRYAAIPGCIALTNAHTKENVLYEEFLKLSCRLAESFKKYGLKQNDTIAVCSENSLQFFLPVIASLYLGIIVAPVNDKYVERELIHSLGIVQPRIVFCSKNTFQKVLNVKSKLKSIETIIILDLNEDLGGYQCLNNFISQNSDSNLDVKKFKPYSFNRDDQVAAIMFSSGTTGLPKGVMLTHKNIVARFSIAKDPTFGDAINPTSAILTVIPFHWGYGMMTTLGYFTCGFRAVLMHTFEEKLFLQSLQDYKVESTLLVPTLMAFLAKSALVEKYDFPHLKEIASGGAPLSKEIGEMVKKRFKLNFVRQGYGLTEATSAVLITPKGDAKPGSTGKIVPLHAVKVVDPTTGKILGPNEPGELYFKGPMKMKGYYNNEEATKAIIDNDGWLRSGDIAYYDNDGHFYIVDRLKSLIKYKGYQVAPAEIEGILLQHPYIVDAGVTGIPDEAAGELPAAGVVVQTGKYLNEQIVQDYVASQVSTAKWLRGGVKFLDEIPKGSTGKIDRKVLRQMLEKHTNGHHHHHHHH
B7: C2158H3: SEQ ID NO: 46; H244W+T344A+I396K+S193A+N228D+L305F+S306P+I109V+N154S+V261A+I410M (protein)
chain: MADKNILYGPEPFYPLEDGTAGEQMFDALSRYAAIPGCIALTNAHTKENVLYEEFLKLSCRLAESFKKYGLKQNDTIAVCSENSLQFFLPVIASLYLGIIVAPVNDKYVERELIHSLGIVKPRIVFCSKNTFQKVLNVKSKLKSIETIIILDLSEDLGGYQCLNNFISQNSDSNLDVKKFKPYSFNRDDQVAAIMFSSGTTGLPKGVMLTHKNIVARFSIAKDPTFGDAINPTSAILTVIPFHWGFGMMTTLGYFTCGFRAVLMHTFEEKLFLQSLQDYKVESTLLVPTLMAFLAKSALVEKYDFPHLKEIASGGAPLSKEIGEMVKKRFKLNFVRQGYGLTEATSAVLITPKGDAKPGSTGKIVPLHAVKVVDPTTGKILGPNEPGELYFKGPMKMKGYYNNEEATKAMIDNDGWLRSGDIAYYDNDGHFYIVDRLKSLIKYKGYQVAPAEIEGILLQHPYIVDAGVTGIPDEAAGELPAAGVVVQTGKYLNEQIVQDYVASQVSTAKWLRGGVKFLDEIPKGSTGKIDRKVLRQMLEKHTNGHHHHHHHH

Assay: Luminescence of ATG-3707 variants (second round epPCR) with CS0333
Format: biochemical
Details: for Luminescence (RLU) BrightGlo / Normalized Luminescence BrightGlo: BrightGlo buffer; for Luminescence (RLU) BrightGlo / Luminescence (RLU) CellTiterGlo / Luminescence (RLU) Detection Reagent: 25° C., 3 min; for Normalized Luminescence BrightGlo / Normalized Luminescence CellTiterGlo / Normalized Luminescence Detection Reagent: normalized to ATG-3707; for Luminescence (RLU) CellTiterGlo / Normalized Luminescence CellTiterGlo: CellTiterGlo buffer; for Luminescence (RLU) Detection Reagent / Normalized Luminescence Detection Reagent: Detection Reagent buffer
Protocol: Reagent compositions included CS0333 diluted from 20 mM to 2 mM in reaction buffer with 2 mM ATP. […] Reactions were incubated at 25° C. for 3 min, and luminescence was read and then normalized to ATG-3707 activity tested in parallel.

| Molecule | Luminescence (RLU) BrightGlo | Normalized Luminescence BrightGlo | Luminescence (RLU) CellTiterGlo | Normalized Luminescence CellTiterGlo | Luminescence (RLU) Detection Reagent | Normalized Luminescence Detection Reagent |
| --- | --- | --- | --- | --- | --- | --- |
| B1 | 3760160 RLU | 0.97 | 778990 RLU | 1.21 | 6098750 RLU | 1.18 |
| B2 | 3249560 RLU | 0.84 | 710098 RLU | 1.10 | 5375380 RLU | 1.04 |
| B3 | 4701610 RLU | 1.21 | 479613 RLU | 0.74 | 5480500 RLU | 1.06 |
| B4 | 3874490 RLU | 1.00 | 738328 RLU | 1.15 | 5661740 RLU | 1.10 |
| B5 | 4599710 RLU | 1.18 | 650068 RLU | 1.01 | 5611680 RLU | 1.09 |
| B6 | 4459170 RLU | 1.15 | 450262 RLU | 0.70 | 5002710 RLU | 0.97 |
| B7 | 3892740 RLU | 1.00 | 648483 RLU | 1.01 | 5916440 RLU | 1.15 |
